One substance from publication PMC2732195 can be followed below.

This assay concerns the target wild type presenilin 1 (PS1) (UniProt P49768). In words: FRET or BRET.

Substance “wild type human APP C99 (from UniProt P05067 672-770) (domain or fragment)” had an Alexa 430 donor lifetime (FRET) of 1230 ps; an Alexa 488 donor lifetime (FLIM), average per cell of 1890 ps; an Alexa 488 donor lifetime (FLIM), cell interior of 2090 ps; an Alexa 488 donor lifetime (FLIM), cell periphery of 1420 ps. The FRET strength normalized to WT APP (normalized to WT APP) came out at 100.
